Biological target: T1, mature recombinant proteinase K from Tritirachium album Limber (processed, natured from pro-proteinase K) (Tritirachium album Limber, UniProt P06873 106-384)
T1 construct: Made in E. coli as pro-proteinase K inclusion bodies, natured in vitro and cleaved autocatalytically; also called processed recombinant proteinase K; native proteinase K
Test: chromatographic methods and SDS-PAGE of natured pro-proteinase K

T1 sequence (P06873 106-384): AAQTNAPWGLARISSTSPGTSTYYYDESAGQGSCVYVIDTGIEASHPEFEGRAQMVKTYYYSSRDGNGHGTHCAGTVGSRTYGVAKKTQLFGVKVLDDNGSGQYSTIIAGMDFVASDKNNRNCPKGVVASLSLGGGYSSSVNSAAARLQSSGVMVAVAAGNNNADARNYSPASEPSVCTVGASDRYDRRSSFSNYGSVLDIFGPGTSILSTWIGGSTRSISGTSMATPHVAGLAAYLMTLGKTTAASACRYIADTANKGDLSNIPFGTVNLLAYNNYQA

binding result: binds
B1: propeptide (prosequence) of proteinase K from Tritirachium album Limber (peptide)
chain: APAVEQRSEAAPLIEARGEMVANKYIVKFKEGSALSALDAAMEKISGKPDHVYKNVFSGFAATLDENMVRVLRAHPDVEYIEQDAVVTIN
